# According to PMC9482650, “Quantitative fragmentomics allow affinity mapping of interactomes” (Nature Communications, 2022):
# Target: T1, APBA1_2, Q02410
# T1 sequence (Q02410 742-832, limits assumed, looked up): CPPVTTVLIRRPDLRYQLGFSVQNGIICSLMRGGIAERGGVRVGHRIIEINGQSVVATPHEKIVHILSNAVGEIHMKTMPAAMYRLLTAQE
# Experiment: holdup assay
# Design: key: below the threshold = too weak to quantify, mostly under pKd 3.1 to 4
# Conditions: plain residues with an end cap or a label only (N-terminal biotin on a linker: ado-ado)
row,Binder,pKd
1,"SVISRREWYV [NECTIN3, Q9NQS3]",3.85
2,"NRVDSKETEC [ADAM17, P78536]",below the threshold

# Target: T2, APBA2_1, Q99767
# T2 sequence (Q99767 563-664, limits assumed, looked up): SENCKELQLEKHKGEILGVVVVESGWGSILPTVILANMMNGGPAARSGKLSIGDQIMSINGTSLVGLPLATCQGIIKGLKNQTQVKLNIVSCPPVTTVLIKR
# Experiment: holdup assay
# Design: key: below the threshold = too weak to quantify, mostly under pKd 3.1 to 4
# Conditions: plain residues with an end cap or a label only (N-terminal biotin on a linker: ado-ado)
row,Binder,pKd
1,"SVISRREWYV [NECTIN3, Q9NQS3]",below the threshold
2,"NRVDSKETEC [ADAM17, P78536]",below the threshold

# Target: CASK, O14936
# Sequence (O14936 487-570): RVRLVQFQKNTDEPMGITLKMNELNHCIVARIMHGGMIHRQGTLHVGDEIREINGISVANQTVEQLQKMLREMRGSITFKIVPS
# Experiment: holdup assay
# Design: key: below the threshold = too weak to quantify, mostly under pKd 3.1 to 4
# Conditions: plain residues with an end cap or a label only (N-terminal biotin on a linker: ado-ado)
row,Binder,pKd
1,"SVISRREWYV [NECTIN3, Q9NQS3]",3.75
2,"NRVDSKETEC [ADAM17, P78536]",below the threshold

# Target: T3, DFNB31_1, Q9P202
# T3 sequence (Q9P202 135-233, limits assumed, looked up): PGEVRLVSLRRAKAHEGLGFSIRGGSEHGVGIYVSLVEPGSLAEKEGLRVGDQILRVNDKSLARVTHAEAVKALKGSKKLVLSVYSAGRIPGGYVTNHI
# Experiment: holdup assay
# Design: key: below the threshold = too weak to quantify, mostly under pKd 3.1 to 4
# Conditions: plain residues with an end cap or a label only (N-terminal biotin on a linker: ado-ado)
row,Binder,pKd
1,"SVISRREWYV [NECTIN3, Q9NQS3]",below the threshold
2,"NRVDSKETEC [ADAM17, P78536]",3.72

# Target: T4, DFNB31_2, Q9P202
# T4 sequence (Q9P202 274-371, limits assumed, looked up): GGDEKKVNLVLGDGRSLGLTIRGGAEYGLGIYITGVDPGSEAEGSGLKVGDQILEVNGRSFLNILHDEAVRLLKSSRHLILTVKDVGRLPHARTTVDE
# Experiment: holdup assay
# Design: key: below the threshold = too weak to quantify, mostly under pKd 3.1 to 4
# Conditions: plain residues with an end cap or a label only (N-terminal biotin on a linker: ado-ado)
row,Binder,pKd
1,"SVISRREWYV [NECTIN3, Q9NQS3]",below the threshold
2,"NRVDSKETEC [ADAM17, P78536]",below the threshold

# Target: DLG1_1, Q12959
# Experiment: holdup assay
# Design: key: below the threshold = too weak to quantify, mostly under pKd 3.1 to 4
# Conditions: plain residues with an end cap or a label only (N-terminal biotin on a linker: ado-ado)
row,Binder,pKd
1,"SVISRREWYV [NECTIN3, Q9NQS3]",below the threshold
2,"NRVDSKETEC [ADAM17, P78536]",4.32

# Target: DLG1_2, Q12959
# Experiment: holdup assay
# Design: key: below the threshold = too weak to quantify, mostly under pKd 3.1 to 4
# Conditions: plain residues with an end cap or a label only (N-terminal biotin on a linker: ado-ado)
row,Binder,pKd
1,"SVISRREWYV [NECTIN3, Q9NQS3]",3.52
2,"NRVDSKETEC [ADAM17, P78536]",4.54

# Target: DLG1_3, Q12959
# Experiment: holdup assay
# Design: key: below the threshold = too weak to quantify, mostly under pKd 3.1 to 4
# Conditions: plain residues with an end cap or a label only (N-terminal biotin on a linker: ado-ado)
row,Binder,pKd
1,"SVISRREWYV [NECTIN3, Q9NQS3]",below the threshold
2,"NRVDSKETEC [ADAM17, P78536]",3.71

# Target: GIPC2, Q8TF65
# Sequence (Q8TF65 112-203): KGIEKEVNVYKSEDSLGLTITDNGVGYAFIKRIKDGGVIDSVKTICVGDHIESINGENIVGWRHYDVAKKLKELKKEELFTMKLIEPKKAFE
# Experiment: holdup assay
# Design: key: below the threshold = too weak to quantify, mostly under pKd 3.1 to 4
# Conditions: plain residues with an end cap or a label only (N-terminal biotin on a linker: ado-ado)
row,Binder,pKd
1,"SVISRREWYV [NECTIN3, Q9NQS3]",below the threshold
2,"NRVDSKETEC [ADAM17, P78536]",4.27

# Target: T5, GRIP1_5, Q9Y3R0
# T5 sequence (Q9Y3R0 568-668, limits assumed, looked up): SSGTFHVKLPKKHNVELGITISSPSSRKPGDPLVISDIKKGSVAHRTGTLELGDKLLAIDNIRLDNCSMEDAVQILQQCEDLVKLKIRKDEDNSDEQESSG
# Experiment: holdup assay
# Design: key: below the threshold = too weak to quantify, mostly under pKd 3.1 to 4
# Conditions: plain residues with an end cap or a label only (N-terminal biotin on a linker: ado-ado)
row,Binder,pKd
1,"SVISRREWYV [NECTIN3, Q9NQS3]",below the threshold
2,"NRVDSKETEC [ADAM17, P78536]",below the threshold

# Target: GRIP2_6, Q9C0E4
# Sequence (Q9C0E4 648-740): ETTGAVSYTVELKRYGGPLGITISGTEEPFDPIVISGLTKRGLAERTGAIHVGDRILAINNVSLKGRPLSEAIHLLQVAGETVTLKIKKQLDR
# Experiment: holdup assay
# Design: key: below the threshold = too weak to quantify, mostly under pKd 3.1 to 4
# Conditions: plain residues with an end cap or a label only (N-terminal biotin on a linker: ado-ado)
row,Binder,pKd
1,"SVISRREWYV [NECTIN3, Q9NQS3]",4.81
2,"NRVDSKETEC [ADAM17, P78536]",below the threshold

# Target: T6, HTRA4, P83105
# T6 sequence (P83105 378-476, limits assumed, looked up): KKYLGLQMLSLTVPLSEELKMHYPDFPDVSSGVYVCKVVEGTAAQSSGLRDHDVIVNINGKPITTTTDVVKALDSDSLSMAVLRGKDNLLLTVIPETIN
# Experiment: holdup assay
# Design: key: below the threshold = too weak to quantify, mostly under pKd 3.1 to 4
# Conditions: plain residues with an end cap or a label only (N-terminal biotin on a linker: ado-ado)
row,Binder,pKd
1,"SVISRREWYV [NECTIN3, Q9NQS3]",3.86
2,"NRVDSKETEC [ADAM17, P78536]",below the threshold

# Target: Inadl_3, Q8NI35
# Sequence (Q8NI35 359-469): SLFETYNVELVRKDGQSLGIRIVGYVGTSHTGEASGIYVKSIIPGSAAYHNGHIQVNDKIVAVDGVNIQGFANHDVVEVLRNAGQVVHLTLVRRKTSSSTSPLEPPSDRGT
# Experiment: holdup assay
# Design: key: below the threshold = too weak to quantify, mostly under pKd 3.1 to 4
# Conditions: plain residues with an end cap or a label only (N-terminal biotin on a linker: ado-ado)
row,Binder,pKd
1,"SVISRREWYV [NECTIN3, Q9NQS3]",5.03
2,"NRVDSKETEC [ADAM17, P78536]",below the threshold

# Target: T7, LNX2_3, Q8N448
# T7 sequence (Q8N448 463-564, limits assumed, looked up): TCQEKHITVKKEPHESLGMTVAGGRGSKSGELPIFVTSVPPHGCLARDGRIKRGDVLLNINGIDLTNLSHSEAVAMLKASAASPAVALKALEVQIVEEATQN
# Experiment: holdup assay
# Design: key: below the threshold = too weak to quantify, mostly under pKd 3.1 to 4
# Conditions: plain residues with an end cap or a label only (N-terminal biotin on a linker: ado-ado)
row,Binder,pKd
1,"SVISRREWYV [NECTIN3, Q9NQS3]",below the threshold
2,"NRVDSKETEC [ADAM17, P78536]",below the threshold

# Target: T8, LRRC7, Q96NW7
# T8 sequence (Q96NW7 1440-1537, limits assumed, looked up): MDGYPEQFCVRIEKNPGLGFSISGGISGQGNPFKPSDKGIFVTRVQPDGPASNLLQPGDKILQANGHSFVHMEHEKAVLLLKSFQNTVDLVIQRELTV
# Experiment: holdup assay
# Design: key: below the threshold = too weak to quantify, mostly under pKd 3.1 to 4
# Conditions: plain residues with an end cap or a label only (N-terminal biotin on a linker: ado-ado)
row,Binder,pKd
1,"SVISRREWYV [NECTIN3, Q9NQS3]",3.52
2,"NRVDSKETEC [ADAM17, P78536]",below the threshold

# Target: MAGI2_6, Q86UL8
# Sequence (Q86UL8 1141-1229): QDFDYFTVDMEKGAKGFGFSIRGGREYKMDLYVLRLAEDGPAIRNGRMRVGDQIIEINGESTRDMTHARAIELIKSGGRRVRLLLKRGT
# Experiment: holdup assay
# Design: key: below the threshold = too weak to quantify, mostly under pKd 3.1 to 4
# Conditions: plain residues with an end cap or a label only (N-terminal biotin on a linker: ado-ado)
row,Binder,pKd
1,"SVISRREWYV [NECTIN3, Q9NQS3]",3.76
2,"NRVDSKETEC [ADAM17, P78536]",4.06

# Target: MAST1, Q9Y2H9
# Sequence (Q9Y2H9 962-1065): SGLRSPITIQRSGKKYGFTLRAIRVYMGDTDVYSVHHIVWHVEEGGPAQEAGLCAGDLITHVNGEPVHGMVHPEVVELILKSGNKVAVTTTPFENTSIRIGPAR
# Experiment: holdup assay
# Design: key: below the threshold = too weak to quantify, mostly under pKd 3.1 to 4
# Conditions: plain residues with an end cap or a label only (N-terminal biotin on a linker: ado-ado)
row,Binder,pKd
1,"SVISRREWYV [NECTIN3, Q9NQS3]",4.34
2,"NRVDSKETEC [ADAM17, P78536]",3.88

# Target: NHERF2_2, Q15599
# Sequence (Q15599 142-238): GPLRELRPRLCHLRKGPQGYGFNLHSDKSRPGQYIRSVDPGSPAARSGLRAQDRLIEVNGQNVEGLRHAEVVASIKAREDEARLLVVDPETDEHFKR
# Experiment: holdup assay
# Design: key: below the threshold = too weak to quantify, mostly under pKd 3.1 to 4
# Conditions: plain residues with an end cap or a label only (N-terminal biotin on a linker: ado-ado)
row,Binder,pKd
1,"SVISRREWYV [NECTIN3, Q9NQS3]",below the threshold
2,"NRVDSKETEC [ADAM17, P78536]",below the threshold

# Target: T9, NHERF3_1, Q5T2W1
# T9 sequence (Q5T2W1 4-100, limits assumed, looked up): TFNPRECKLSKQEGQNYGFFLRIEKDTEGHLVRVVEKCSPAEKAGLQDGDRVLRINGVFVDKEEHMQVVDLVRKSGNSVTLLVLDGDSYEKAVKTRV
# Experiment: holdup assay
# Design: key: below the threshold = too weak to quantify, mostly under pKd 3.1 to 4
# Conditions: plain residues with an end cap or a label only (N-terminal biotin on a linker: ado-ado)
row,Binder,pKd
1,"SVISRREWYV [NECTIN3, Q9NQS3]",4.52
2,"NRVDSKETEC [ADAM17, P78536]",3.81

# Target: NHERF4_2, Q86UT5
# Sequence (Q86UT5 220-308): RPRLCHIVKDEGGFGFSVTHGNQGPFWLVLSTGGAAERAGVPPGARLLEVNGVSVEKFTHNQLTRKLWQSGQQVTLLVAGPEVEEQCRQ
# Experiment: holdup assay
# Design: key: below the threshold = too weak to quantify, mostly under pKd 3.1 to 4
# Conditions: plain residues with an end cap or a label only (N-terminal biotin on a linker: ado-ado)
row,Binder,pKd
1,"SVISRREWYV [NECTIN3, Q9NQS3]",below the threshold
2,"NRVDSKETEC [ADAM17, P78536]",below the threshold

# Target: T10, PDZD7_3, Q9H5P4
# T10 sequence (Q9H5P4 857-944, limits assumed, looked up): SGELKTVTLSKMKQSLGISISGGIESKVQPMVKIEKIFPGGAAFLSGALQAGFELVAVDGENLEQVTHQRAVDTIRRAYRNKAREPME
# Experiment: holdup assay
# Design: key: below the threshold = too weak to quantify, mostly under pKd 3.1 to 4
# Conditions: plain residues with an end cap or a label only (N-terminal biotin on a linker: ado-ado)
row,Binder,pKd
1,"SVISRREWYV [NECTIN3, Q9NQS3]",below the threshold
2,"NRVDSKETEC [ADAM17, P78536]",below the threshold

# Target: SCRIB_1, Q14160
# Sequence (Q14160 718-814): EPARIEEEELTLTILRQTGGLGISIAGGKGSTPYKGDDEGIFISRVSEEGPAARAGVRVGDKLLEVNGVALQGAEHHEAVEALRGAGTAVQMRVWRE
# Experiment: holdup assay
# Design: key: below the threshold = too weak to quantify, mostly under pKd 3.1 to 4
# Conditions: plain residues with an end cap or a label only (N-terminal biotin on a linker: ado-ado)
row,Binder,pKd
1,"SVISRREWYV [NECTIN3, Q9NQS3]",below the threshold
2,"NRVDSKETEC [ADAM17, P78536]",4.49

# Target: T11, SIPA1L2, Q9P2F8
# T11 sequence (Q9P2F8 945-1036, limits assumed, looked up): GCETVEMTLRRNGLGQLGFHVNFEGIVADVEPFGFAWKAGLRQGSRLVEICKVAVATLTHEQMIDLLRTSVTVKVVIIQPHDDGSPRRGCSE
# Experiment: holdup assay
# Design: key: below the threshold = too weak to quantify, mostly under pKd 3.1 to 4
# Conditions: plain residues with an end cap or a label only (N-terminal biotin on a linker: ado-ado)
row,Binder,pKd
1,"SVISRREWYV [NECTIN3, Q9NQS3]",below the threshold
2,"NRVDSKETEC [ADAM17, P78536]",below the threshold

# Target: T12, TIAM2, Q8IVF5
# T12 sequence (Q8IVF5 885-986, limits assumed, looked up): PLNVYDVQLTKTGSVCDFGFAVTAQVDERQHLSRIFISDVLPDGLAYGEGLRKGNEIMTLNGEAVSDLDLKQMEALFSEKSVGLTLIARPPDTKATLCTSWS
# Experiment: holdup assay
# Design: key: below the threshold = too weak to quantify, mostly under pKd 3.1 to 4
# Conditions: plain residues with an end cap or a label only (N-terminal biotin on a linker: ado-ado)
row,Binder,pKd
1,"SVISRREWYV [NECTIN3, Q9NQS3]",5.1
2,"NRVDSKETEC [ADAM17, P78536]",3.92

# Target: T13, TJP3_3, O95049
# T13 sequence (O95049 375-456, limits assumed, looked up): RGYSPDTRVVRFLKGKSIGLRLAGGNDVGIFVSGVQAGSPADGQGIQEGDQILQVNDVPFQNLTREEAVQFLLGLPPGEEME
# Experiment: holdup assay
# Design: key: below the threshold = too weak to quantify, mostly under pKd 3.1 to 4
# Conditions: plain residues with an end cap or a label only (N-terminal biotin on a linker: ado-ado)
row,Binder,pKd
1,"SVISRREWYV [NECTIN3, Q9NQS3]",4.39
2,"NRVDSKETEC [ADAM17, P78536]",below the threshold
